Test results published in the supplement of paper PMC11246515.
± gives the standard deviation of the averaged measurements.

Assay: total protein half-life in vivo (active degradation + dilution); higher = more stable protein
[1] = E. coli NCM3722 delta-clpP delta-lon delta-hslV, growth: N-lim chemostat, doubling time 6 h
[2] = E. coli NCM3722 delta-clpP, growth: N-lim chemostat, doubling time 6 h
[3] = E. coli NCM3722 delta-hslV, growth: N-lim chemostat, doubling time 6 h
[4] = E. coli NCM3722 delta-lon, growth: N-lim chemostat, doubling time 6 h
[5] = E. coli NCM3722 delta-smpB, growth: N-lim chemostat, doubling time 6 h
[6] = wild type E. coli NCM3722, growth: C-lim chemostat, doubling time 6 h
[7] = wild type E. coli NCM3722, growth: C-lim chemostat, doubling time 12 h
[8] = wild type E. coli NCM3722, growth: N-lim chemostat, doubling time 6 h
[9] = wild type E. coli NCM3722, growth: N-lim chemostat, doubling time 12 h
[10] = wild type E. coli NCM3722, growth: P-lim chemostat, doubling time 6 h
[11] = wild type E. coli NCM3722, growth: P-lim chemostat, doubling time 12 h
[12] = wild type E. coli NCM3722, growth: C-lim chemostat, doubling time 3 h

| Sequence | total protein half-life in vivo [1] [h] | total protein half-life in vivo [2] [h] | total protein half-life in vivo [3] [h] | total protein half-life in vivo [4] [h] | total protein half-life in vivo [5] [h] | total protein half-life in vivo [6] [h] | total protein half-life in vivo [7] [h] | total protein half-life in vivo [8] [h] | total protein half-life in vivo [9] [h] | total protein half-life in vivo [10] [h] | total protein half-life in vivo [11] [h] | total protein half-life in vivo [12] [h] |
| --- | --- | --- | --- | --- | --- | --- | --- | --- | --- | --- | --- | --- |
| MKPDAHQVKQFLLNLQDTICQQLTAVDGAEFVEDSWQREAGGGGRSRVLRNGGVFEQAGVNFSHVHGEAMPASATAHRPELAGRSFEAMGVSLVVHPHNPYVPTSHANVRFFIAEKPGADPVWWFGGGFDLTPFYGFEEDAIHWHRTARDLCLPFGEDVYPRYKKWCDEYFYLKHRNEQRGIGGLFFDDLNTPDFDRCFAFMQAVGKGYTDAYLPIVERRKAMAYGERERNFQLYRRGRYVEFNLVWDRGTLFGLQTGGRTESILMSMPPLVRWEYDYQPKDGSPEAALSEFIKVRDWV | 5.53 ± 1.4 | 4.55 ± 0.073 | 5 ± 0.44 | 5.01 ± 0.37 | 4.05 ± 0.34 | 5.24 ± 0.9 | 10.1 ± 0.14 | 4.29 ± 0.35 | 7.38 ± 0.34 | 6.06 ± 0.66 | 11.7 ± 0.97 | – |
| MKPIFSRGPSLQIRLILAVLVALGIIIADSRLGTFSQIRTYMDTAVSPFYFVSNAPRELLDGVSQTLASRDQLELENRALRQELLLKNSELLMLGQYKQENARLRELLGSPLRQDEQKMVTQVISTVNDPYSDQVVIDKGSVNGVYEGQPVISDKGVVGQVVAVAKLTSRVLLICDATHALPIQVLRNDIRVIAAGNGCTDDLQLEHLPANTDIRVGDVLVTSGLGGRFPEGYPVAVVSSVKLDTQRAYTVIQARPTAGLQRLRYLLLLWGADRNGANPMTPEEVHRVANERLMQMMPQVLPSPDAMGPKLPEPATGIAQPTPQQPATGNAATAPAAPTQPAANRSPQRATPPQSGAQPPARAPGGQ | 5.092 ± 0.007 | 4.62 ± 0.051 | 4.54 ± 0.24 | – | 4.76 ± 0.74 | 5.57 ± 1.1 | 10.25 ± 0.089 | 4.21 ± 0.1 | 8.66 ± 0.23 | 4.98 ± 0.25 | 10.5 ± 0.18 | 2.85 ± 0.07 |
| MKPNIHPEYRTVVFHDTSVDEYFKIGSTIKTDREIELDGVTYPYVTIDVSSKSHPFYTGKLRTVASEGNVARFTQRFGRFVSTKKGA [P0A7N1] | – | – | – | – | 2.8 | 5.71 ± 0.51 | 9.33 | – | – | 6.22 | – | 2.784 ± 0.022 |
| MKPQVYHVDAFTSQPFRGNSAGVVFPADNLSEAQMQLIARELGHSETAFLLHSDDSDVRIRYFTPTVEVPICGHATVAAHYVRAKVLGLGNCTIWQTSLAGKHRVTIEKHNDDYRISLEQGTPGFEPPLEGETRAAIINALHLTEDDILPGLPIQVATTGHSKVMIPLKPEVDIDALSPDLNALTAISKKIGCNGFFPFQIRPGKNETDGRMFSPAIGIVEDPVTGNANGPMGAWLVHHNVLPHDGNVLRVKGHQGRALGRDGMIEVTVTIRDNQPEKVTISGTAVILFHAEWAIEL | > 8 | 4.73 | – | – | 6.56 | – | – | – | – | – | – | – |
| MKPTSVIIMDTHPIIRMSIEVLLQKNSELQIVLKTDDYRITIDYLRTRPVDLIIMDIDLPGTDGFTFLKRIKQIQSTVKVLFLSSKSECFYAGRAIQAGANGFVSKCNDQNDIFHAVQMILSGYTFFPSETLNYIKSNKCSTNSSTVTVLSNREVTILRYLVSGLSNKEIADKLLLSNKTVSAHKSNIYGKLGLHSIVELIDYAKLYELI [P0AEL8] | 5.67 ± 0.072 | – | – | – | – | – | – | – | – | – | – | – |
| MKPYQRQFIEFALSKQVLKFGEFTLKSGRKSPYFFNAGLFNTGRDLALLGRFYAEALVDSGIEFDLLFGPAYKGIPIATTTAVALAEHHDLDLPYCFNRKEAKDHGEGGNLVGSALQGRVMLVDDVITAGTAIRESMEIIQANGATLAGVLISLDRQERGRGEISAIQEVERDYNCKVISIITLKDLIAYLEEKPEMAEHLAAVKAYREEFGV [P0A7E3] | 4.07 ± 0.75 | 3.84 ± 0.28 | 3.61 | 4.35 ± 0.61 | 3.83 ± 0.08 | 5.31 ± 0.18 | 9.3 ± 3.5 | 3.93 ± 0.33 | 6.396 ± 0.051 | 5.62 ± 0.25 | 10.7 ± 0.39 | 2.87 ± 0.3 |
| MKQALRVAFGFLILWASVLHAEVRIVIDSGVDSGRPIGVVPFQWAGPGAAPEDIGGIVAADLRNSGKFNPLDRARLPQQPGSAQEVQPAAWSALGIDAVVVGQVTPNPDGSYNVAYQLVDTGGAPGTVLAQNSYKVNKQWLRYAGHTASDEVFEKLTGIKGAFRTRIAYVVQTNGGQFPYELRVSDYDGYNQFVVHRSPQPLMSPAWSPDGSKLAYVTFESGRSALVIQTLANGAVRQVASFPRHNGAPAFSPDGSKLAFALSKTGSLNLYVMDLASGQIRQVTDGRSNNTEPTWFPDSQNLAFTSDQAGRPQVYKVNINGGAPQRITWEGSQNQDADVSSDGKFMVMVSSNGGQQHIAKQDLATGGVQVLSSTFLDETPSLAPNGTMVIYSSSQGMGSVLNLVSTDGRFKARLPATDGQVKFPAWSPYL [P0A855] | 5.6 ± 0.21 | 6.39 ± 0.61 | – | 6.28 ± 0.33 | 6.07 ± 0.73 | 6.59 ± 0.57 | 11.3 ± 0.41 | 6.31 ± 0.17 | 13.8 ± 1.4 | 5.89 ± 0.3 | 13.05 ± 0.13 | 3.14 ± 0.04 |
| MKQKVVSIGDINVANDLPFVLFGGMNVLESRDLAMRICEHYVTVTQKLGIPYVFKASFDKANRSSIHSYRGPGLEEGMKIFQELKQTFGVKIITDVHEPSQAQPVADVVDVIQLPAFLARQTDLVEAMAKTGAVINVKKPQFVSPGQMGNIVDKFKEGGNEKVILCDRGANFGYDNLVVDMLGFSIMKKVSGNSPVIFDVTHALQCRDPFGAASGGRRAQVAELARAGMAVGLAGLFIEAHPDPEHAKCDGPSALPLAKLEPFLKQMKAIDDLVKGFEELDTSK [P0A715] | 6.1 ± 0.77 | 5.88 ± 1.5 | 5.22 ± 0.14 | 6.19 ± 0.93 | 4.85 ± 0.15 | 6.05 ± 0.51 | 10.3 ± 1.2 | 5.01 ± 0.13 | 9.03 ± 0.37 | 5.58 ± 0.48 | 12.9 ± 1.5 | 3.15 ± 0.56 |
